# Patent US20240247080A1, “GLP1/GIP/NPY2 RECEPTOR TRIPLE AGONISTS” (Boehringer Ingelheim International GmbH, priority 2022, published 2024)
# Starred links: 1 amine or outer side, 2 acyl side, 3 side chain; linkers in the order of their positions; H or OH if unused. Non-standard residues stand in square brackets, D forms with d. Groups on a side chain read outwards from the residue. No end group written: not given here. *: point of attachment. C18 diacid = O=C(O)CCCCCCCCCCCCCCCCC(=O)*; γGlu = O=C(O)[C@H](CCC(=O)[*:2])N[*:1]; AEEA = NCCOCCOCC(=O)O; Aib = CC(C)(N)C(=O)O
# T1: human neuropeptide Y2 (NPY2) receptor (human, UniProt P49146 1-381)
# T1 sequence (looked up): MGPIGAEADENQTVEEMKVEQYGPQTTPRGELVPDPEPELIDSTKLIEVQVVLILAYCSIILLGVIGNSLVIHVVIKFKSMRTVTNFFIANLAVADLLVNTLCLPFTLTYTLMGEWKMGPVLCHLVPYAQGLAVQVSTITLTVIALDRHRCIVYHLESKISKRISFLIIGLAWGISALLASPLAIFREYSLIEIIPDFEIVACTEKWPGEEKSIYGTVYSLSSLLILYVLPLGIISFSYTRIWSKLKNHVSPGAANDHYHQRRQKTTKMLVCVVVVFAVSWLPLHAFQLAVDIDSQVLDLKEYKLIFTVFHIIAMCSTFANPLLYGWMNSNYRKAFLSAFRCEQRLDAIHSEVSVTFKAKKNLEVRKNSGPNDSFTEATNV
# T2: human GIP receptor (human, UniProt P48546 22-466)
# T2 sequence (looked up): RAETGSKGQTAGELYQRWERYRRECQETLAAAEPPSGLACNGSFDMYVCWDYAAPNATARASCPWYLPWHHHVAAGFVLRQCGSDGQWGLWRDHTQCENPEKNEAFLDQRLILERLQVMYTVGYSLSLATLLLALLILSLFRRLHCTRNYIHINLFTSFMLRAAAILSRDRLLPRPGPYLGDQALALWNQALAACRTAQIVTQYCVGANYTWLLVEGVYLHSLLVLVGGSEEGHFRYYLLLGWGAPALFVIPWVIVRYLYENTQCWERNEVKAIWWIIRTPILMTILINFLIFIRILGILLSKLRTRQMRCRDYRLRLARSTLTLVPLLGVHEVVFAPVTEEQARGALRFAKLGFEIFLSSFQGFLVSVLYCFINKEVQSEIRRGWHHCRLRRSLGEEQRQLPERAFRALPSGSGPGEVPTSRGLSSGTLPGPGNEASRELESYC
# T3: human neuropeptide Y2 receptor (human, UniProt P49146 1-381)
# T3 sequence (looked up): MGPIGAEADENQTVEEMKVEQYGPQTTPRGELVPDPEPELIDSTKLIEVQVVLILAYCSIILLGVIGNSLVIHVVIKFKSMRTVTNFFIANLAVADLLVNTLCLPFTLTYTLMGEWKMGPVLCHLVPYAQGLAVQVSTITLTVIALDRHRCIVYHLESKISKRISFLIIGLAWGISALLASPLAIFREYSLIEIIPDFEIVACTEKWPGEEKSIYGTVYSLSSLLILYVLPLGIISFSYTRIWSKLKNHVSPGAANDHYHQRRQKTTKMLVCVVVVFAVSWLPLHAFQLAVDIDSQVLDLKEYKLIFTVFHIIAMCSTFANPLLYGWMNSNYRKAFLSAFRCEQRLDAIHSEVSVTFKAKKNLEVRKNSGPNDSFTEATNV
# T4: human GIP receptor (human, UniProt P48546 22-466)
# T4 sequence (looked up): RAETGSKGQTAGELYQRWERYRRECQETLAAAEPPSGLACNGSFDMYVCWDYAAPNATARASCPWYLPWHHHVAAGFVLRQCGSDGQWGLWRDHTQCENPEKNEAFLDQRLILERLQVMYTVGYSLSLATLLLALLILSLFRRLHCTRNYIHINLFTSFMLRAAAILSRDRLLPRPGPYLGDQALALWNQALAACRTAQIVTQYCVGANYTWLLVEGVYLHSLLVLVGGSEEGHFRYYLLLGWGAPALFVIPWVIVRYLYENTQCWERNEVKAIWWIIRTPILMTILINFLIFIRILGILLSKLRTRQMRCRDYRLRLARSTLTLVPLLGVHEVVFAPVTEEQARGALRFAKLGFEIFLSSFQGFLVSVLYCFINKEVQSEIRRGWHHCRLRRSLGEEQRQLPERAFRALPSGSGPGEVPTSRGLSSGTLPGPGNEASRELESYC
# Experiments:
# Experiment in all cases: cell-based or functional assay
# [1] = molecular target: T1, human neuropeptide Y2 (NPY2) receptor
# human GLP-1 receptor [2] = molecular target: human GLP-1 receptor (human, UniProt P43220 24-463)
# human GIP receptor [3] = molecular target: T2, human GIP receptor
# human GLP-1 receptor [4] = molecular target: human GLP-1 receptor (human, UniProt P43220 24-463); remark: listed apart in the source
# [5] = molecular target: T3, human neuropeptide Y2 receptor
# human GIP receptor [6] = molecular target: T4, human GIP receptor; remark: listed apart in the source
"EC50, CreLuc assay, 0.5% hP [1] [nM]","EC50, CreLuc assay, 100% hP [1] [nM]","EC50, CreLuc assay, 0.5% hP (human GLP-1 receptor [2]) [nM]","EC50, CreLuc assay, 100% hP (human GLP-1 receptor [2]) [nM]","EC50, CreLuc assay, 0.5% hP (human GIP receptor [3]) [nM]","EC50, CreLuc assay, 100% hP (human GIP receptor [3]) [nM]",EC50 hGLP1R 0.5% hP (CreLuc) (human GLP-1 receptor [4]) [nM],EC50 hGLP1R 100% hP (CreLuc) (human GLP-1 receptor [4]) [nM],EC50 hNPY2R 0.5% hP (CreLuc) [5] [nM],EC50 hNPY2R 100% hP (CreLuc) [5] [nM],EC50 hGIPR 0.5% hP (CreLuc) (human GIP receptor [6]) [nM],EC50 hGIPR 100% hP (CreLuc) (human GIP receptor [6]) [nM],Binder
11.9,45.8,0.11,4.76,0.14,1.8,,,,,,,"YXEGTFTSDYSIXLEKQAQXAFVQWLIKGGPESPASLRHYYNWLTRQRY (Aib at 2, 13, 20; K28 side chain: C18DA-gGlu-gGlu-gGlu-gGlu-gGlu; C-terminal NH2) [Compound 12]"
10.3,34.4,0.15,2.75,0.22,1.11,,,,,,,"YXEGTFTSDYSIXLEKQAQXAFVEWLIKGGPSSGASLRHYYNWLTRQRY (Aib at 2, 13, 20; NMeQ 47; K28 side chain: C20DA-gGlu-gGlu-gGlu-gGlu-gGlu-gGlu-eLys; C-terminal NH2) [Compound 85]"
12.8,54.8,1.6,16.3,0.79,6.76,,,,,,,"YXEGTFTSDYSIXLEKQAQXAFVEWLIKGGPSYYVSLRHYYNWLTRQRY (Aib at 2, 13, 20; K28 side chain: C20DA-gGlu-gGlu-gGlu-gGlu-gGlu-gGlu-eLys; C-terminal NH2) [Compound 80]"
,,,,,,0.1,2.13,8.83,23,0.39,0.79,"YXEGTFTSDYSIXLEKQAQXAFVQWLIKGGPSEGASLRHYYNWLTRQRY (Aib at 2, 13, 20; K28 side chain acylated with C18DA-gGlu-gGlu-gGlu-gGlu-gGlu-gGlu-eLys; C-terminal amide (NH2)) [Compound 265]"
28.8,80.6,0.17,2.87,0.13,1.06,,,,,,,"YXEGTFTSDYSIXLEKQAQXAFVEWLIKGGPSSGASLRHYYNWLTRQRY (Aib at 2, 13, 20; NMeR 48; K28 side chain: C20DA-gGlu-gGlu-gGlu-gGlu-gGlu-gGlu-eLys; C-terminal NH2) [Compound 83]"
6.85,28.5,0.4,7.13,0.71,2.22,,,,,,,"YXEGTFTSDYSIXLEKQAQXAFVQWLIKGGPRYYASLRHYYNWLTRQRY (Aib at 2, 13, 20; K28 side chain: C20DA-gGlu-gGlu-gGlu-gGlu-gGlu-gGlu-eLys; C-terminal NH2) [Compound 14]"
,,,,,,0.15,3.91,24.1,64,0.18,1.15,"YXEGTFTSDYSIXLEKQAQXAFVEWLIKGGPSSGASLRHYYNWLTRQRY (Aib at 2, 13, 20; K28 side chain acylated with C18DA-gGlu-gGlu-gGlu-gGlu-gGlu-OEG-OEG; C-terminal amide (NH2)) [Compound 261]"
,,,,,,0.13,4.28,13.2,58.2,0.08,0.53,Y[Aib]EGTFTSDYSI[Aib]LEKQAE[Aib]AFVEWLIK([γGlu-γGlu-γGlu-γGlu-C18 diacid])GGPSEGASLRHYYNWLTRQRY-NH2 (also: TFA salt) [Compound 262]
,,,,,,0.11,3.95,16.8,81.2,0.28,1.82,Y[Aib]EGTFTSDYSI[Aib]LEKQAQ[Aib]AFVQWLIK([Glu-Glu-Glu-Glu-Glu-Glu-C18 diacid])GGPSEGASLRHYYNWLTRQRY-NH2 (also: TFA salt) [Compound 264]
11.1,36.4,0.6,15.4,0.27,1.79,,,,,,,Y[Aib]EGTFTSDYSI[Aib]LEKQAQ[Aib]EFVEWLIK([AEEA-AEEA-γGlu-γGlu-γGlu-C18 diacid])GGPESGASLRHYYNWLTRQRY-NH2 (also: TFA salt) [Compound 81]
9.54,31.5,0.05,0.92,0.09,0.77,,,,,,,Y[Aib]EGTFTSDYSI[Aib]LEKQAQ[Aib]AFVEWLIKGGPSSGAS[Aib]RHYYNR[Aib]TRQRY-NH2 (not fully specified (residue 28); also: TFA salt) [Compound 13]
